Results: patent publication US20220289856A1 (IGM BIOSCIENCES, published 2022)
Residue numbers refer to the chain shown, from its start.

B1: anti-CD123×CD3 IgM #2 (bispecific antibody)
heavy: QVQLVQSGAEVKKPGASVKVSCKASGYTFTSYWMNWVRQAPGQGLEWMGRIDPYDSETHYNQKFKDRVTMTVDKSTSTAYMELSSLRSEDTAVYYCARGNWDDYWGQGTTVTVSSGSASAPTLFPLVSCENSPSDTSSVAVGCLAQDFLPDSITFSWKYKNNSDISSTRGFPSVLRGGKYAATSQVLLPSKDVMQGTDEHVVCKVQHPNGNKEKNVPLPVIAELPPKVSVFVPPRDGFFGNPRKSKLICQATGFSPRQIQVSWLREGKQVGSGVTTDQVQAEAKESGPTTYKVTSTLTIKESDWLSQSMFTCRVDHRGLTFQQNASSMCVPDQDTAIRVFAIPPSFASIFLTKSTKLTCLVTDLTTYDSVTISWTRQNGEAVKTHTNISESHPNATFSAVGEASICEDDWNSGERFTCTVTHTDLPSPLKQTISRPKGVALHRPDVYLLPPAREQLNLRESATITCLVTGFSPADVFVQWMQRGQPLSPEKYVTSAPMPEPQAPGRYFAHSILTVSEEEWNTGETYTCVVAHEALPNRVTERTVDKSTGKPTLYNVSLVMSDTAGTCY
light: EVVLTQSPATLSLSPGERATLSCRASKSISKDLAWYQQKPGQAPRLLIYSGSTLQSGIPARFSGSGSGTDFTLTISSLEPEDFAVYYCQQHNKYPYTFGGGTKVEIKRTVAAPSVFIFPPSDEQLKSGTASVVCLLNNFYPREAKVQWKVDNALQSGNSQESVTEQDSKDSTYSLSSTLTLSKADYEKHKVYACEVTHQGLSSPVTKSFNRGEC
chain: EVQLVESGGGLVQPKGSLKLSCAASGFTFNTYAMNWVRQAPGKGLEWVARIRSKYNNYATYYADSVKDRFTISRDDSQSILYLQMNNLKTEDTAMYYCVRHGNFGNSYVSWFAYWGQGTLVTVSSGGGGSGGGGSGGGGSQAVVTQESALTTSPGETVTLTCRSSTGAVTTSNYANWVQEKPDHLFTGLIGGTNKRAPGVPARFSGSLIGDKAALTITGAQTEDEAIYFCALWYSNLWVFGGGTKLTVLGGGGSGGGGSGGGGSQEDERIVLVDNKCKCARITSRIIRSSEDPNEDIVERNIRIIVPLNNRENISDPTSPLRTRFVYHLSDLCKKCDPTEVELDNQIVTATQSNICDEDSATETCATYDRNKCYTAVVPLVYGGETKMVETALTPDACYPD
B2: IGM #A-b-J*-H1 (bispecific antibody)
chain 1: EVQLVQSGAEVKKPGESLKISCKGSGYSFTDYYMKWARQMPGKGLEWMGDIIPSNGATFYNQKFKGQVTISADKSISTTYLQWSSLKASDTAMYYCARSHLLRASWFAYWGQGTMVTVSS
chain 2: DIVMTQSPDSLAVSLGERATINCESSQSLLNSGNQKNYLTWYQQKPGQPPKPLIYWASTRESGVPDRFSGSGSGTDFTLTISSLQAEDVAVYYCQNDYSYPYTFGQGTKLEIKR
chain 3: not shown
B3: anti-CD123 IgG #1 (antibody, V domains shown)
VH: QVQLQQSGAEVKKPGASVKVSCKASGYTFTDYYMKWVKQSHGKSLEWMGDIIPSNGATFYNQKFKGKATLTVDRSTSTAYMELSSLRSEDTAVYYCARSHLLRASWFAYWGQGTLVTVSS
VL: B2 chain 2 with I2F, E24K, S32T, P52L, S69T, Q106G
notes: Mono-specific IgG version of anti-CD123 #1; also called mono-specific IgG anti-CD123 construct
B4: IGM #B-b-J*-H1 (bispecific antibody)
VH: QIQLVQSGPELKKPGETVKISCKASGYIFTNYGMNWVKQAPGKSFKWMGWINTYTGESTYSADFKGRFAFSLETSASTAYLHINDLKNEDTATYFCARSGGYDPMDYWGQGTSVTVSS
VL: DIVLTQSPASLAVSLGQRATISCRASESVDNYGNTFMHWYQQKPGQPPKLLIYRASNLESGIPARFSGSGSRTDFTLTINPVEADDVATYYCQQSNEDPPTFGAGTKLELK
J-chain: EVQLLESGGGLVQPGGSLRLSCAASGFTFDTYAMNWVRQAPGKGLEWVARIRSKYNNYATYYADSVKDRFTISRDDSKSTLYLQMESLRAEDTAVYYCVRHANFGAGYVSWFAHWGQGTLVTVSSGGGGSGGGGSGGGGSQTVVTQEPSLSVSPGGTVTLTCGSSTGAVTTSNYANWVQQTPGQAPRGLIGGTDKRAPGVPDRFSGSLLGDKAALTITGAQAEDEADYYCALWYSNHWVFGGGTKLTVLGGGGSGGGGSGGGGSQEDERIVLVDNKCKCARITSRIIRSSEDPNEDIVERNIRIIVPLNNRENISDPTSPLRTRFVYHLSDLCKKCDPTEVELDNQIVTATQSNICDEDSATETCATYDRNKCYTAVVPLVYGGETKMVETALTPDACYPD
B5: anti-CD123×CD3 IgG #1 (bispecific antibody)
heavy 1: QVQLQQSGAEVKKPGASVKVSCKASGYTFTDYYMKWVKQSHGKSLEWMGDIIPSNGATFYNQKFKGKATLTVDRSTSTAYMELSSLRSEDTAVYYCARSHLLRASWFAYWGQGTLVTVSSASTKGPSVFPLAPSSKSTSGGTAALGCLVKDYFPEPVTVSWNSGALTSGVHTFPAVLQSSGLYSLSSVVTVPSSSLGTQTYICNVNHKPSDTKVDKKVEPKSCDKTHTCPPCPAPPVAGPSVFLFPPKPKDTLMISRTPEVTCVVVDVKHEDPEVKFNWYVDGVEVHNAKTKPREEEYNSTYRVVSVLTVLHQDWLNGKEYKCKVSNKALPAPIEKTISKAKGQPREPQVYTLPPSREEMTKNQVSLTCDVSGFYPSDIAVEWESDGQPENNYKTTPPVLDSDGSFFLYSKLTVDKSRWEQGDVFSCSVMHEALHNHYTQKSLSLSPGK
light: not shown
heavy 2: not shown
notes: Construct described in WO 2017/210443 A1, made by commercial vendors; also called bispecific anti-CD123×CD3 IgG #1; anti-CD123×anti-CD3 BiTE construct
B6: anti-CD123×CD3 IgM #1 (bispecific antibody)
heavy: QVQLQQSGAEVKKPGASVKVSCKASGYTFTDYYMKWVKQSHGKSLEWMGDIIPSNGATFYNQKFKGKATLTVDRSTSTAYMELSSLRSEDTAVYYCARSHLLRASWFAYWGQGTLVTVSSGSASAPTLFPLVSCENSPSDTSSVAVGCLAQDFLPDSITFSWKYKNNSDISSTRGFPSVLRGGKYAATSQVLLPSKDVMQGTDEHVVCKVQHPNGNKEKNVPLPVIAELPPKVSVFVPPRDGFFGNPRKSKLICQATGFSPRQIQVSWLREGKQVGSGVTTDQVQAEAKESGPTTYKVTSTLTIKESDWLSQSMFTCRVDHRGLTFQQNASSMCVPDQDTAIRVFAIPPSFASIFLTKSTKLTCLVTDLTTYDSVTISWTRQNGEAVKTHTNISESHPNATFSAVGEASICEDDWNSGERFTCTVTHTDLPSPLKQTISRPKGVALHRPDVYLLPPAREQLNLRESATITCLVTGFSPADVFVQWMQRGQPLSPEKYVTSAPMPEPQAPGRYFAHSILTVSEEEWNTGETYTCVVAHEALPNRVTERTVDKSTGKPTLYNVSLVMSDTAGTCY
light: not shown
chain: not shown
notes: also called Anti-CD123 XCD3 IgM #1
B7: anti-CD123 IgG #2 (antibody, V domains shown)
VH: QVQLVQSGAEVKKPGASVKVSCKASGYTFTSYWMNWVRQAPGQGLEWMGRIDPYDSETHYNQKFKDRVTMTVDKSTSTAYMELSSLRSEDTAVYYCARGNWDDYWGQGTTVTVSS
VL: EVVLTQSPATLSLSPGERATLSCRASKSISKDLAWYQQKPGQAPRLLIYSGSTLQSGIPARFSGSGSGTDFTLTISSLEPEDFAVYYCQQHNKYPYTFGGGTKVEIKR
notes: Mono-specific IgG version of anti-CD123 #2; also called mono-specific IgG anti-CD123 construct
B8: IGM #C-b-J*-H1 (bispecific antibody)
VH: QVQLQQPGAELVRPGASVKLSCKASGYTFTSYWMNWVKQRPDQGLEWIGRIDPYDSETHYNQKFKDKAILTVDKSSSTAYMQLSSLTSEDSAVYYCARGNWDDYWGQGTTLTVSS
VL: DVQITQSPSYLAASPGETITINCRASKSISKDLAWYQEKPGKTNKLLIYSGSTLQSGIPSRFSGSGSGTDFTLTISSLEPEDFAMYYCQQHNKYPYTFGGGTKLEIK
J-chain: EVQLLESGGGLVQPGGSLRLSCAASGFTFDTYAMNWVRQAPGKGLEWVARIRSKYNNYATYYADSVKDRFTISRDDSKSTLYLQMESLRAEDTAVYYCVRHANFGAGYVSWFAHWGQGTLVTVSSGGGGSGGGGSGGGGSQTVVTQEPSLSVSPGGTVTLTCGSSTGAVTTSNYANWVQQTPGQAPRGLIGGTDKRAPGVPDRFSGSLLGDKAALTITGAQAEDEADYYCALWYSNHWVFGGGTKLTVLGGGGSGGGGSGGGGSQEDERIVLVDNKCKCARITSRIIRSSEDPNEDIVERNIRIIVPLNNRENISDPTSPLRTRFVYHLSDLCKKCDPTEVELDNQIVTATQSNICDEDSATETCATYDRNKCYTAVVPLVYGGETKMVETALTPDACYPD
B9: IGM #F-b-J*-H1 (bispecific antibody)
VH: QVQLQESGPGLVKPSQSLSLTCSVTDYSITSGYYWNWIRQFPGNKLEWMGYISYDGSNNYNPSLKNRISITRDTSKNQFFLKLSSVTTEDTATYYCSRGEGFYFDSWGQGTTLTVSS
VL: DIMMSQSPSSLAVSVGEKFTMTCKSSQSLFFGSTQKNYLAWYQQKPGQSPKLLIYWASTRESGVPDRFTGSGSGTDFTLAISSVMPEDLAVYYCQQYYNYPWTFGGGTKLEIK
J-chain: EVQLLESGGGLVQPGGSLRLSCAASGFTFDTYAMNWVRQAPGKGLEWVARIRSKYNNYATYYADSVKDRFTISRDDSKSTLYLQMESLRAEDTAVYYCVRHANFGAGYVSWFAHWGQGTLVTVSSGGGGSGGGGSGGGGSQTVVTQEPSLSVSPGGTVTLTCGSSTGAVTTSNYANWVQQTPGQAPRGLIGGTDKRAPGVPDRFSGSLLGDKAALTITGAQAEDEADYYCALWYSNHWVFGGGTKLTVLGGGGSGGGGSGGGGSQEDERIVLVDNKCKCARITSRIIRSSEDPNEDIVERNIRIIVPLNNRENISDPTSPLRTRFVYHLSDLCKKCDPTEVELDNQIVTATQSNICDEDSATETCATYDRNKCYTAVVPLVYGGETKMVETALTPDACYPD
notes: IgM pentamer with a modified J-chain

What was measured:
[1] = target: T1, recombinant human CD123 protein (Sino Biological 10518-H08H-50) (human, UniProt P26951 19-305); experiment: ELISA on plate-coated recombinant human CD123
T1 construct: also called IL-3 receptor alpha chain; IL-3Rα
T1 sequence (looked up): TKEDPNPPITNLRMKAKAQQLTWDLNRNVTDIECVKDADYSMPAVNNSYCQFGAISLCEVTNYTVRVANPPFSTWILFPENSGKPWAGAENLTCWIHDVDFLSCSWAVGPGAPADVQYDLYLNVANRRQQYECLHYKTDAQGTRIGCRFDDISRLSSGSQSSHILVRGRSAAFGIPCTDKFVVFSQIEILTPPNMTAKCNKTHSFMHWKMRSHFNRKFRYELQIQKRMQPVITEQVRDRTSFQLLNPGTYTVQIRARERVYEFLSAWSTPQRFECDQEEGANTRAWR
Protocol: (§1) 96-well white polystyrene ELISA plates (Pierce 15042) were coated with 100 μL per well of 0.5 μg/mL recombinant human CD123 protein (Sino Biological 10518-H08H-50) or recombinant human CD3ε protein (Acro Biosystems, CDE-H5256-100) overnight at 4° C. Plates were then washed 5 times with 0.05% PBS-Tween and blocked with 2% BSA-PBS. After blocking, 100 μL of serial dilutions of CD123 IgM or IgG, standards, and controls were added to the wells and incubated at room temperature for 2 hours. The plates were then washed 10 times and incubated with HRP conjugated mouse anti-human kappa (Southern Biotech, 9230-05. 1:6000 diluted in 2% BSA-PBS) for 30 min. After 10 final washes using 0.05% PBS-Tween, the plates were read out using SuperSignal chemiluminescent substrate (ThermoFisher, 37070). Luminescent data were collected on an EnVision plate reader (Perkin-Elmer) and analyzed with GraphPad Prism using a 4-parameter logistic model.

[2] = target: recombinant human CD3ε protein (Acro Biosystems, CDE-H5256-100) (human, UniProt P07766 23-126); experiment: ELISA on plate-coated recombinant human CD3ε
Protocol: as §1

[3] = target: T1, recombinant human CD123 protein (Sino …); experiment: ELISA on plate-coated recombinant human CD123, as in Example 2
Protocol: as §1

[4] = target: T2, CD123 on AML cells (Kg-1a, MOLM-13, MV4-11, THP-1, PL21) (UniProt P26951 19-378); experiment: cell-based or functional assay
[5] = target: T2, CD123 on AML cells (Kg-1a, MOLM-13, …); experiment: cell-based or functional assay; remark: listed apart in the source

Sequence of recombinant human CD3ε protein (Acro Biosystems, CDE-H5256-100) (P07766 23-126 limits assumed): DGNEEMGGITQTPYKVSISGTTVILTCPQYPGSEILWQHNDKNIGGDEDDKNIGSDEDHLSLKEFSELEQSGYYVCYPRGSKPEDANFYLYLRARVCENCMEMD

| Binder | binding result [1] | binding result [2] | EC50 [3] | T Cell-Directed Killing EC50 (pM), MV411, Strong Donor T cells [4] | T Cell-Directed Killing EC50 (pM), MV411, Weak Donor T cells [4] | T Cell-Directed Killing EC50 (pM), PL21, Strong Donor T cells [4] | T Cell-Directed Killing EC50 (pM), THP-1, Strong Donor T cells [4] | other results |
| --- | --- | --- | --- | --- | --- | --- | --- | --- |
| B1 | binds | binds |  |  |  |  |  |  |
| B2 |  |  | 0.198 nM |  |  |  |  |  |
| B3 | binds | no binding |  |  |  |  |  |  |
| B4 |  |  | 0.298 nM | 41.2 pM | 35.3 pM | 4.9 pM | 12.9 pM | T Cell-Directed Killing EC50 (pM), PL21, Weak Donor T cells [4]: 227 pM; T Cell-Directed Killing EC50 (pM), THP-1, Weak Donor T cells [4]: 46.2 pM |
| B5 |  | binds |  |  |  |  |  |  |
| B6 |  | binds |  |  |  |  |  | T cell-directed killing of MV4-11 cells (luciferase), EC50 [5]: 0.0136 nM; T cell-directed killing of THP-1 cells (luciferase), EC50 [5]: 0.0111 nM |
| B7 | binds | no binding |  |  |  |  |  |  |
| B8 |  |  | 0.354 nM | 0.1 pM | 528 pM | 147 pM | 104 pM | T Cell-Directed Killing EC50 (pM), THP-1, Weak Donor T cells [4]: 990 pM |
| B9 |  |  | 0.53 nM | 273 pM | 1080 pM | 102 pM | 66.3 pM |  |
